Source: the supplement of paper PMC10201428
± gives the standard deviation of the averaged measurements.

test system: VchCAST RNA-guided transposition machinery (E. coli BL21(DE3) host, lacZ target); assay: relative integration efficiency (T-LR orientation) vs wild-type transposon end (log2 (normalized fold change)); transposon end mutated: right end (5 bp flank + 75 bp right end); higher = more efficient transposition
In short: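 Barcoded pools of 1549 left-end or 1849 right-end transposon variants were cloned into a pUC57 mini-transposon donor. Each pool was co-transformed with a T7-driven effector plasmid (CRISPR array, tniQ-cas8-cas7-cas6, tnsA-tnsB-tnsC) into E. coli BL21(DE3) and plated with 0.1 mM IPTG at 37°C for 18 h. Input plasmids and genomic integration junctions were PCR-amplified and Illumina-sequenced, with two biological output replicates and four wild-type barcodes as reference. Relative integration efficiency is output/input barcode abundance fold change, normalised to wild-type barcodes and log-transformed.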

Sequence | relative integration efficiency (log2)
ACATTTGTTGATACAACCATAAAATGATAATTACACCCATAAATTGATAATTATCAAAACACCCATAAATTGATATTGCCTCTGATCATAGTCAGACCAACATTGCTACGACCCGTATTCGCACCGA | 2.29 ± 0.22
ACATTTGTTGATACAACCATAAACGGATAATTACACCCATAAATTGATAATTATCACACCCATAAATTGATATTGCCTCTGATCATAGTCAGACCAACATTGCTACGACCCGTATTCGCACCGACAC | -0.722 ± 0.72
ACATTTGTTGATACAACCATAAGTTGATATTTTCAACCATAAAGTGATATTTATCACACCCATAAATTGATAATTACTCTGATCATAGTCAGACCAACATTGCTACGACCCGTATTCGCACCGACAC | -0.0467 ± 0.44
ACATTTGTTGATACAACCATAAAATCATAATTACACCCATAAATTGATAATTATCCCACCCAATTTAACTATAACGCTCTGATCATAGTCAGACCAACATTGCTACGACCCGTATTCGCACCGACAC | 1.64 ± 0.041
ACATTTGTTGATACAACCATAAAATGATCCTTACACCCATAAATTGATAATTATCACACCCATAAATTGATATTGCCTCTGATCATAGTCAGACCAACATTGCTACGACCCGTATTCGCACCGACAC | -0.545 ± 0.46
ACATTTGTTGATACAACCAATTTATGATAATTACACCCATAAATTGATAATTATCACACCCATAAATTGATATTGCCTCTGATCATAGTCAGACCAACATTGCTACGACCCGTATTCGCACCGACAC | -0.66 ± 0.3
ACCGTTGTTGATACAACCATAAAATGATAATTACACCCATAAATTGATAATTATCACACCCATAAATTGATATTGCCTCTGATCATAGTCAGACCAACATTGCTACGACCCGTATTCGCACCGACAC | 0.612 ± 0.13
ACATTTCTGGATACAACCATAAAATGATAATTACACCCATAAATTCATCATTATCACACCCAATTTAACTATAACGCTCTGATCATAGTCAGACCAACATTGCTACGACCCGTATTCGCACCGACAC | -0.104 ± 0.069
ACATTTGTTGATACAACCATAAAATGATAATTACACCCATAAATTGATAATTATCCACAAACGCCCGGTCGCGGTAAGAGGATCATAGTCAGACCAACATTGCTACGACCCGTATTCGCACCGACAC | 2.3 ± 0.11
ACATTTGTTGATACAACCATAAGTTGATATTTTCACCCATAAATTGATATTGCTCACAACCATATATTGATATCTCCTCTGATCATAGTCAGACCAACATTGCTACGACCCGTATTCGCACCGACAC | 0.0122 ± 0.21
ACATTTGTTGATACACCCATAAATTGATATTGCCAACCATAAAGTGATATTTATCAGTGGGTATTTAACTATAACGCTCTGATCATAGTCAGACCAACATTGCTACGACCCGTATTCGCACCGACAC | 2.341 ± 0.0029
ACATTTGTTGATACAACCCGAAAATGATAATTACACCCATAAATTGATAATTATCACACCCATAAATTGATATTGCCTCTGATCATAGTCAGACCAACATTGCTACGACCCGTATTCGCACCGACAC | -3.67 ± 0.84
ACATTTGTTGATACAACCATAAAATGATAATTCCACCCCTACATTGATAATTATCACACCCAATTTAACTATAACGCTCTGATCATAGTCAGACCAACATTGCTACGACCCGTATTCGCACCGACAC | 0.35 ± 0.091
ACATTTGTTGATACAACCATAAAATGATAATTACTCTGATCATAGTCAGACCAACATTGCTACGACCCGTATTCGCACCGACACAACGACTATCACCCATAAATTGATAATTATCAGTGGGTATTTA | 2.166 ± 0.019
ACATTTGTTGATAAAACCATACGTTGATTTTACGAAACCATACGCTGAAATAATCACACCCATAAATTGATATTGCCTCTGATCATAGTCAGACCAACATTGCTACGACCCGTATTCGCACCGACAC | -3.87 ± 1.2
ACATTTGTTGATACAACCATTAAATGATAATTACACCCATAAATTGATAATGATGACACCGAATTTAACTATAACGCTCTGATCATAGTCAGACCAACATTGCTACGACCCGTATTCGCACCGACAC | 1.9 ± 0.16

Sequence | relative integration efficiency (log2)
ACATTTGTTGATACAACCATAAAATCATAATTACACCCATCAATTGATAATTATCACACCCAATTTAACTATAACGCTCTGATCATAGTCAGACCAACATTGCTACGACCCGTATTCGCACCGACAC | -0.27 ± 0.36
ACATTTGTGGATACAACCATAAAATGATAATTACACCCATAAATGGATAATTATCACCCCCAATTTAACTATAACGCTCTGATCATAGTCAGACCAACATTGCTACGACCCGTATTCGCACCGACAC | 1.55 ± 0.31
ACATTTGTTGATACAACCATAAAATGATAATTACACCACGCCCGGTCGCCGGCGACACAAACGCCCGGTCGCGGTAAGAGGATCATAGTCAGACCAACATTGCTACGACCCGTATTCGCACCGACAC | 0.799 ± 0.081
ACATTTGTTGATACAACCATAAAGTGATATTTACAACCATAAAATGATAATTATCACACCCATAAATTGATAATTACTCTGATCATAGTCAGACCAACATTGCTACGACCCGTATTCGCACCGACAC | 0.307 ± 0.068
ACATTTGTTGATACAACCATAAAATGATAATTACACCCATAAATTGATAATTATCACACCCATAACGGTCGCGGTAAGAGGATCATAGTCAGACCAACATTGCTACGACCCGTATTCGCACCGACAC | 2.14 ± 0.13
ACATTTGCTGATACTACCATTTAATGATAATAACACCCATAAAATGATAATTATCACACCCAATTTAACTATAACGCTCTGATCATAGTCAGACCAACATTGCTACGACCCGTATTCGCACCGACAC | -0.487 ± 0.3
ACATTTGTTGATACCACCATCAAATGGTAATTCCACCCCTAAATTGATAATTATCACACCCAATTTAACTATAACGCTCTGATCATAGTCAGACCAACATTGCTACGACCCGTATTCGCACCGACAC | -4 ± 0.18
ACATTTGTTGATACAACCATAAAATGATAATTACACCCATAAATTGATAATTATCACACCCATAAATTGATATTGCCTCTGGCTAGCACTATACCTAGGACTGAGCTAGCCGTCAACGCACCGACAC | 0.877 ± 0.31
ACATTTGTTGATACAACCATAAAAGGATCATTACACCCATAAATTGATAATTATCACACCCCATTTAACTATAACGCTCTGATCATAGTCAGACCAACATTGCTACGACCCGTATTCGCACCGACAC | 1.27 ± 0.23
ACATTTGTTGATACAACCATAAGTTGATATTTTCAACCATAAAATGATAATTATCACAACCATAAAGTGATATTTACTCTGATCATAGTCAGACCAACATTGCTACGACCCGTATTCGCACCGACAC | -0.26 ± 0.094
ACATTTGTTGATACAACCATAAAATGATAATTACACCCATCCATTGATAATTATCACACCCATAAATTGATATTGCCTCTGATCATAGTCAGACCAACATTGCTACGACCCGTATTCGCACCGACAC | -1.63 ± 1
ACATTTGTTGATACAACCATAAAAGTATAATTACACCCATAAATTGATAATTATCACACCCATAAATTGATATTGCCTCTGATCATAGTCAGACCAACATTGCTACGACCCGTATTCGCACCGACAC | -0.606 ± 0.35
ACATTTGTTGATACAACCATAAAATGATAATTACACCCATAATATGATAATTATCACACCCATAAATTGATATTGCCTCTGATCATAGTCAGACCAACATTGCTACGACCCGTATTCGCACCGACAC | -0.175 ± 0.045
ACATTTGTTGATACCACCATAAAATGGTAATTACACCCCTACATTGATAATTATCACACCCAATTTAACTATAACGCTCTGATCATAGTCAGACCAACATTGCTACGACCCGTATTCGCACCGACAC | -0.988 ± 0.042
ACATTTGTTGATACAACCATAAAATGATAATTCACCCATCAATTGATAATTATCACACCCCAATTTAACTATAACGCTCTGATCATAGTCAGACCAACATTGCTACGACCCGTATTCGCACCGACAC | -0.128 ± 0.16
ACATTTGTTGATACACCCATAAATTGATAATTACACCCATAAATTGATATTGCTCACACCCATAAATTGATAATTACTCTGATCATAGTCAGACCAACATTGCTACGACCCGTATTCGCACCGACAC | 0.319 ± 0.23
